Results on 21 sequences are retold here after the DeepSol protein solubility set.

A short description of this data set: soluble on expression in E. coli; label from the status in PepcDB or PDB records.
Turning to “MYRKGAQAERELIKLLEKHGFAVVRSAGSKKVDLVAGNGKKYLCIEVKVTKKDHLYVGKRDMGRLIEFSRRFGGIPVLAVKFLNVGWRFIEVSPKIEKFVFTPSSGVSLEVLLGIQKTLEGKS”, the “soluble on expression in E. coli” value is recorded as “soluble”. Then “EKTEQEQILIPVANPDTIEDLINLALVIRDTKQKKELIALNVINDNNNSENKELQGKRNLEKAAMIAASADVSVNMVSRYDLNIASGIIHTIKEYDATDVVIGLHRKANIVDSFFGNLAESLLKGTHREVIIAKFLMPVN”, with “not soluble”; and “MGSDKIHHHHHHVAKAAQRKLLLSELQLGMRVKLPLSWTNHPFLFNRVDINSLAQIEMIRGLGVPYVFLLSEVNTKSEQPSTDNKIIEVQEQPKTERDIKSATRKAMRLSQKRFLEGVNQCRNMFGKIVSDPEGAYRQSATLVEEMLSHLQEVEQPFLTLVGMDENEVSVTQHGVSVAVIAMMIGHALDLTPRELRDIALGSLLHDIGKLKVPENIRRKLSALTTNEANYLQMHPNFGYDMLNRSGLFPKEVLNIVLHHHEFIDGSGFPDGLTGNKIPIVTQIVALANDFDQHLSGQQASSPQVALGYLFKNRAAKHAESLISVLVKILGIYPPGTIVKLSDDSVAKVIMTTKEVAQPQVWACKPDGSEASLRFLSEEGVTVQKALKAEELTEGAIRTLQVDKGVSFYFSALQA”, with “not soluble”; and “MSLTPEIPPKNFTPHLPEDYDARISGVLPYYSSFHQETINLVKSLPSSPKIWMDTGCGTGSLINKAIEEFLDTKFLLLDPSESMLEQAKGKLSFYPDGKVEFLKASSTQEFSQELEEKPDVITAIQCHHYLSLEDRSRATRVCYNLLKEGGIYITFENIRPLTEEGVAVGKRYWGKFQSLHGRKEKEIQTHLERFDTEYFPITVEEHLKLLRDTGFRTVELFWYSYMQAGFYCIKEGHHHHHH”, with “soluble”. As for “MGSDKIHHHHHHMKILIVGGSGGIGSAMVKDALARFQDAEVHATFCTDSTHTGCSHFSGVKWHRLDVTDEAGIKALSESFESLDWLINCVGMLHSGSKGPEKSLSQFDGEFFLHNMTLNTLPTLLLAKHFSARLKSSVSPRLAVLSARVGSISDNRLGGWYSYRASKAALNMLIKTLAVEWQRSLKGGVVLALHPGTTKTRLSEPFQANVPGDKLFLPERVAADLMDIIARAEVCDSGSFLAYDGATIPW”, the “soluble on expression in E. coli” value is listed as “not soluble”. With “MAELKLEHIKKTYDNNNTVVKDFNLHITDKEFIVFVGPSGCGKSTTLRMVAGLESITSGDFYIDGERMNDVEPKNRDIAMVFQNYALYPHMTVFENMAFGLKLRKVNKKEIEQKVNEAAEILGLTEYLGRKPKALSGGQRQRVALGRAIVRDAKVFLMDEPLSNLDAKLRVQMRTEILKLHKRLNTTTIYVTHDQTEALTMASRIVVLKDGDIMQVGTPREIYDAPNCIFVAQFIGSPAMNMLNATVEMDGLKVGTHHFKLHNKKFEKLKAAGYLDKEIILGIRAEDIHEEPIFIQTSPETQFESEVVVSELLGSEIMVHSTFQGMELISKLDSRTQVMANDKITLAFDMNKCHFFDEKTGNRIV” the entry was “not soluble”; with “MSLVVFLLLKSQFLYGEDFKLRKGTLIIEEGIIKGFTDEHNEREVIEFKGLVIPSLINAHTHIADNSIKDIGINKTLDELVKPPNGLKHRYLTECSDDLLAEGMKLGLGDMREHGIKYFCDFRENGVRGISLLNKALKCYDYPKAIILGRPIKVDKDEIEEVLKVSNGLGLSGANEFKDDELKLIFKIFKKFKEKDDKKLFAIHAAEHRGAVEYSLNKYGMTEVERLIDLKIKPDFIVHGTHLTDNDLELLKENNIPVVACVRANLSFNVGMPKLNELNDNLLVGIGTDNFMANSPSIFKEMDFIYKLYHIEPKDILRMATINNAKILKLENVGLVDEGFKAVFTFIKPTNAILFSKNIIASVVTRCEKGDVVDFSLMENEEEGHHHHHH”, “soluble”; with “AKLLPKLQKQNLSDSAQQIAQERGLGNSSQRKVYLPIIRAYRVGPELIDWTDGKNLRELGIYRQTGCYIERIRRNGILAHPDGDAILQEGDEIALVGFPDSHARLDPSFRNGKEVFDRNLLDLRIVEEEIVVKSDAIAGKRLSDLNLSEFGCFLNRVVRAQIEMPMDLDIVLAKGDVLQVSGEKSRVHGLAEKIGFISIHSQMAD”, “not soluble”.

As for “SETRGPQGAANPMDSSRSLGDLGPFPREVGRGAPLAPGARNPATAGASRSQGGGHEDRTADRALGPRAGEELDRESWVREKVLFLLHPERWLGTRGDPAREEVAGAEDLPHAGGEDHGEEPNYPSVFQREKRISGRRVAPPRDAADPPKYVLVRVEDYQVTQEVLQTSWAKGRMTTRTEEHFVTALTFRSSREGQPGERWGPAESRALQARTGASRVHAAGRRVSPSPGTWLEEIKL”, the “soluble on expression in E. coli” value is recorded as “soluble”. For “MGSDKIHHHHHHMYKMTDNELTQMGAVITTREIQQEPELWLETFKIYQEKKQAIDAFLGKIESEFNEPVRVVFTGAGSSAYVGDTAMPYLTENGDRNHFRFEAIDTTKIVSTPKQYLEKDTPTILVSFARSGNSPESVATVDIAEKYVKHLYQITITCAPEGKLALHAQEDDKNLVLMQPARSNDKGFAMTGSFSCMLLTTLLVFDAQHSDEQKETYVNAISKMGHEVIDRVDDIQKLVDTDFERIVYLGSGALGGLTREAQLKVLELTAGQKVTVFDTSMGFRHGPKSFVNSKTLLFDFVSNNAYTRQYDVDILEEVAGDEIAPVVMGIGVQSAHNFTGSNFNFANGDDSIPDGYMAFPDVMFAQTISLLSSIKVKNTPDTPSATGTVNRVVKGVTIHDFEG”, the “soluble on expression in E. coli” value is listed as “not soluble”. With “MNVNAETEDATLLLDGLLQNVAIIRFDTNKKVTYANALFAEAMGYTEEEMLQLSHPDLCFPDFVQTASYKEMWTNLLAGQKFQNKIERKNARGERVWFEATYIPIIREETVVGVAKIATDIT” the entry was “not soluble”.

Turning to “MNVTPWEVEGVIDYSKLIEEFGMQPFSEVLPEIDNPHILMRRGAIFGHRDYWRIIEAMQKKEPWAVMSGFMPSGLPHFGHKMTMDEIVWHQSAGGKAFVAIADMEAHSVRGLSWEKTRELGMLYIKSIIALGLREDAVIYFQSKSSHVKDLAFELSAEVNFSELRAIYGFNSDTSLAKMFVTAIQAADILHPQLSDFGGPKPVVVPVGADQDPHMRLTRDLAARISIFSFEPVEGGVRVRSRKGAEYLSSLRDLEFDKKIYEEHMDIFGEAEEIERAVRKIEVEIGGFAFIPPSSTYHRFTTGLTGGKMSSSKPESYISLLDPPEEGAKKVMKAFTGGRATAEEQRRLGGEPDRCVVFELYSFHLIDSDEELNQIEAECREGRLLCGKCKKMAAELVKSFLKEHQEKMEAVDLSNYTIIG”, the “soluble on expression in E. coli” value was “not soluble”. With “MGSDKIHHHHHHMIAAIDIGTESARLMFKSNGEWKVLKKSYRIFFPSPEAAEQDPNEIFSAVFDLLKQVPNEDEVLYVGMSSVFHSIIGLDENLNPVTPLLNWADRRSFREKEELEKKYGVRFFYEKTACPLHPMYWPSKILWMKKNSNAKKFCSIKAYIVNKMTREFVEELSLASGTGMMNIHSLEWDGEILEITGVRKEDLPEIKSPYTQLRVKDEIAKELGFKKVYLVLGGGDGVMTNVGVNVMDPDSATVTIGTSGAFRVVMDRPVIDREGISTWCYLIDEENYVLGGAINNGGIVLMWLRDIMKFKDYNDIIEEAKESPAGANGLVFLPFLNGERAPHWRERYRGVLVGLTSSHRRSDIARAALEGICFRIKDIHNAVKRVGSVDPNRIVATGGFTSSPYWVQLLSDVLGKDIIVTNVENPSAFGAYVMALKSLGEDVEGFIEKEVRVERVFHPDSERNAVYERLYNDYKFLYEKLVDYYYKE” the entry was “not soluble”. With “MGSDKIHHHHHHMSEWDKNRWKEGRSSEYTWKGVVFMAKIMKQFLKGNDLSLSIQEIFKNELIPCTVRHLPKGEILWHDKEPHPYSYFIINGIIKLHVVTKEGREKALFYYTNGSLLGFQNLAKEKRTITTATAILPTSLYACEFSLLYTFVMNNPQYFAAFTSYIFHHMAVEAEEIVNISLYNTAERLAALLVLLAEEFPQNEQGYIEIPFNNEELATMVGACRNSVFNALSVFQKQKLIHKGRGRLVIADLPRLKEYV” the entry was “not soluble”; with “LLRHISDAFAEDPLRVLRVARFAARFHHLGFSIAEQTLELMQKMTACGELNHLTAERIWRETEKALHTESPHIYFQVLRKVNALAILFPEIDQLFGQIQSVKYHLETDRGQHTLLALQQAKLLVKQAHNPTALLWAVLCHDLGKDLISAEMLPHHYQPNVTGIQLTHQLADRLKVPTAVKELALLVNKYHTNCHKIAELDSERVLELFNQLDVWRKPQRLDDFLLACEADARARLGAEYCSYPQA”, “not soluble”; with “MSLERIRDLTSVQGVRQNSLIGYGLVVGLDGTGDQTTQTPFTTQTLNNMLSQLGITVPTGTNMQLKNVAAVMVTASLPPFGRQGQTIDVVVSSMGNAKSLRGGTLLMTPLKGVDSQVYALAQGNILVGGAGASAGGSSVQVNQLNGGRITNGAVIERELPSQFGVGNTLNLQLNDEDFSMAQQIADTINRVRGYGSATALDARTIQVRVPSGNSSQVRFLADIQNMQVNVTPQDAKVVINSRTGSVVMNREVTLDSCAIAQGNLSVTVNRQANVSQPDTPFGGGQTVVTPQTQIDLRQSGGSLQSVRSSASLNNVVRALNALGATPMDLMSILQSMQSAGCLRAKLEIIEGHHHHHH”, “soluble”. For the sequence “MAHHHHHHMKRGREEDKEAEVGGSRVGPSDRRSAATSTEHKPRRLLKGADVGLPLHESVIEETCEVEETHAVLVRFPCFDFFRHVRVCERTRDLQPATSDDAAKASASLASALSDTTFRSGAPPVTSTHDTADVAFAPEAAVFIPGTLETDAPRLLLNGGTPHEMLFEGQWTEVTGEGVSVTNRAVVHLSAKTAGIAVSPAALPLNTSPIMSDAAKSPELARAAAESFPASASQATATPALPIASLLTHTLAGVTADEERRQRAEQQKGWTYDRIDVPSAVLVMHRVR”, the “soluble on expression in E. coli” value is reported as “not soluble”.

Take “MSSLHLDALHWSPDASTELLRGVHLEVPAGSFVGLIGPNGSGKTSLLRCAFRYARPQRGRVVLDGDDLWRQPPRWAARRIAVVLQEFPEDFGLAVEDVVAMGRTPHKGLFDGHGADDRQRVRQALLQVGLEGRAASPFASLSGGEKQRALLARALVQEPRLLILDEPTNHLDPRYQLELLRLLRSLGLSTLASFHDLNLAAAFCDRLYVLDGGRIVAQGTPTEVLDADLLWRVFGVRALVDRHPLADHPR”: the “soluble on expression in E. coli” value is on record as “not soluble”. With “GHMDQSDFSPYIEIDLPSESRIQSLHKSGLAAQEWVACEKVHGTNFGIYLINQGDHEVVRFAKRSGIMDPNENFFGYHILIDEFTAQIRILNDLLKQKYGLSRVGRLVLNGELFGAKYKHPLVPKSEKWCTLPNGKKFPIAGVQIQREPFPQYSPELHFFAFDIKYSVSGAEEDFVLLGYDEFVEFSSKVPNLLYARALVRGTLDECLAFDVENFMTPLPALLGLGNYPLEGNLAEGVVIRHVRRGDPAVEKHNVSTIIKLRCSSFMELKHPGKQKE” the entry was “soluble”; with “MSFASGCTPVSFDKLFEVSSGDKVSRENWGMIARPEPQHDSLKRRNTTSSIAKKKAKMTRGDEQITDETARKAATQLLDQIQDTPGRISLNFETPEAASVCPIPTSLNQIVNTKWTVNQLQEGQLTMLLAQDANKFKSLGVKNIKKGSVETQILPRQMDVKEIVEKLKKQDNDSDQFVGYAAAVANVLRRCDAETAQKITQAITATIEKEAPSIVNC”, “not soluble”; with “MGSDKIHHHHHHMSSSSVLAESCNGSQKKRVFVVGATGYIGKFVVRELVSRGYEVISFARPRSGVNASTTEDETRRQLQGSEVRFGDVSNLESLLRDGIRGEHFDAVVSCLASRNGGIKDSWDIDYQATRNSLDAGMKAGINHFVLLSAICVQKPMLEFQRAKLKFEKELRESGVTYSIVRPTAFFKSIAGQIEKVKNGKPYVMFGDGKLTACKPISEGDLARFITDCLEDPEKQNKILPIGGPGEPVTNLDQALMLFELLGRKPKLKKVPIQIFDVIIPLLTLISKFLPSFAEKAEFARIGKYYCSESMLVWDPVKKRYDADATPSYGTETLRDFYKRVLKEGLAGQELGAHAMF”, “not soluble”.
